The chains are these.
T1: soluble CD95L (Enzo Life Sciences) (UniProt P48023 130-281)
T1 construct: soluble CD95 ligand (CD95L, Fas ligand); The conclusion calls it the unmodified CD95L; also called sCD95L; source: bought: Enzo Life Sciences
T1 sequence (looked up): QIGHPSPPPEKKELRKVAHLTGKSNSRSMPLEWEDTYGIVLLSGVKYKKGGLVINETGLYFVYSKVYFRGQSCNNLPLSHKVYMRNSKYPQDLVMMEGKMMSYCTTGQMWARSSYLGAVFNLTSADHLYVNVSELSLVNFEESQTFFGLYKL

B1: CD95L-IZ-biotin (CD95L-IZ after His-tag cleavage, biotinylated at the extra cysteine) (ligand)
chain: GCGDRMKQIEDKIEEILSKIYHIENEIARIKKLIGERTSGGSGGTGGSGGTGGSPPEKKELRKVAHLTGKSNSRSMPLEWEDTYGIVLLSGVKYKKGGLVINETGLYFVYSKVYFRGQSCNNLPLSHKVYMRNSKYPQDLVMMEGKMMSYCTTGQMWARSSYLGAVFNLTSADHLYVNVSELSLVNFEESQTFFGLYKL
modifications: biotin (biotin-C5-maleimide) on the extra cysteine; glycosylated
notes: What is left after TEV cleavage: Gly, extra cysteine, isoleucine zipper (IZ) and linker; CD95 ligand (CD95L, Fas ligand, CD178, TNFSF6), human, extracellular domain, amino acids 137-281; also called CD95L-IZ-X; source: HEK293T, transient transfection, secreted; purified (anti-His-tag antibody agarose beads), His-tag cut with TEV protease, labelled with biotin-C5-maleimide; not shown: His8, …
B2: CD95-His receptor protein (Sino Biological) (receptor, UniProt P25445 26-173, looked up)
chain: QVTDINSKGLELRKTVTTVETQNLEGLHHDGQFCHKPCPPGERKARDCTVNGDEPDCVPCQEGKEYTDKAHFSSKCRRCRLCDEGHGLEVEINCTRTQNTKCRCKPNFFCNSTVCEHCDPCTKCEHGIIKECTLTSNTKCKEEGSRSN
notes: CD95 (Fas, Apo-1) receptor protein with His-tag; also called Fas; Apo-1; source: bought: Sino Biological
B3: CD95L-IZ-His (His8-TEV-Cys-IZ-CD95L (137-281), secreted form) (ligand)
chain: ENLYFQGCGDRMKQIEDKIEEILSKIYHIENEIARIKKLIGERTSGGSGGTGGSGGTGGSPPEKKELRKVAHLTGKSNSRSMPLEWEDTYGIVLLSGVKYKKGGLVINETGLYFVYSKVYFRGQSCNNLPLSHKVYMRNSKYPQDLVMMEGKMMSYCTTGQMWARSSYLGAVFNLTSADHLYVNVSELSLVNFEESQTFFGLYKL
modifications: glycosylated (the paper suggests three to five N-glycans)
notes: TEV protease site ENLYFQ, extra cysteine, isoleucine zipper (IZ, variant of the GCN4 leucine zipper) and linker; CD95 ligand (CD95L, Fas ligand, CD178, TNFSF6), human, extracellular domain, amino acids 137-281; The natural CD95L part is fused to a designed trimerisation motif; also called CD95L-IZ with His-tag; CD95-IZ-His; source: HEK293T, transient transfection (PEI), secreted into the medium; …

For data set [1], the target named is B2. The data set is described as follows: ELISA; CD95-His coated at 2 µg/ml in PBS overnight at 4 °C; ligand 0.1-100 nM in 0.5 % BSA/PBST, 2 h at r.t.; detected with anti-CD95L antibody and HRP secondary; 4-parameter logistic fit. The conditions noted are these: both partners purified. Background: ELISA stands for enzyme-linked immunosorbent assay.
For data set [2], the target named is T1, soluble CD95L (Enzo Life Sciences). Described as above. As to conditions: both partners purified.
Data set [3] concerns the molecule itself. In words: SEC; Superdex 75 10/300 GL, PBS pH 7.4, 0.3 ml/min; 350 µl CD95L-IZ-His at 0.409 mg/ml; protein standard mix for sizes; curve fitted with three Gaussians. Background: In gel filtration, larger molecules generally elute earlier.

Experimental findings from article doi:10.1101/2024.10.12.618001, “High yield purification of an Isoleucine zipper modified CD95 Ligand with either biotin or DNA-oligomer binding domain for efficient Cell Apoptosis Induction” (bioRxiv, 2024) are described below.

Where “and” joins values, the source holds several entries; their conditions need not be identical. Identical values can stand only once.

By Kd is commonly meant the constant that tells how readily two partners part at equilibrium. Usually stoichiometry N stands for a count of units in the complex or per binding partner.

As for B1, the Kd in data set [1] came out at 0.68 nM.

Turning to B2, the Kd in data set [2] was 11.3 nM.

On to B3, for which, in data set [3], the “stoichiometry N” value was 3 and 2.
